Measured values reported in article PMC6938348 (PLoS ONE, 2019).

Key:
[1] = target: T1, Her2 on cells (SKOV3, JIMT-1, MCF7) (Homo sapiens (endogenous in SKOV3, …, UniProt P04626)); assay: flow cytometry on cells; saturation binding of full-size antibodies on live low-Her2 MCF7 cells, 4°C 2 h, 0 to 200 nM or 1 μM, washed, anti-human Fc AlexaFluor488-(Fab')2 detection; apparent KD; settings: one partner purified
T1 construct: Her2 as it stands on the surface of live SKOV3 (high), JIMT-1 (low) and MCF7 (very low) cells; also called Her2 receptors; source: endogenous, on SKOV3, JIMT-1 and MCF7 cells

[2] = target: T1, Her2 on cells (SKOV3, JIMT-1, MCF7); assay: flow cytometry on cells; saturation binding of full-size antibodies on live high-Her2 SKOV3 cells, 4°C 2 h, 0 to 200 nM or 1 μM, washed, anti-human Fc AlexaFluor488-(Fab')2 detection; apparent KD; settings: one partner purified
[3] = target: T1, Her2 on cells (SKOV3, JIMT-1, MCF7); assay: cell-based or functional assay
soluble Her2 ectodomain [4] = target: T2, soluble Her2 ectodomain (Homo sapiens (assumed; species and …, UniProt P04626); assay: SPR; antibody captured on an anti-hFc CM-5 surface, soluble Her2 ectodomain flowed (monovalent binding); single cycle kinetics in duplicate, 25°C, PBS with 3.4 mM EDTA and 0.05% Tween 20; 1:1 binding model; Biacore T200; settings: both partners purified
T2 construct: Her2 ectodomain, soluble

soluble Her2 ectodomain [5] = target: T2, soluble Her2 ectodomain; assay: as above; settings: both partners purified; remark: listed apart in the source
[6] = target: T1, Her2 on cells (SKOV3, JIMT-1, MCF7); assay: cell-based or functional assay; remark: listed apart in the source

Kd [1]: 0.87 nM
Kd [2]: 2.41 nM
Kd (soluble Her2 ectodomain [4]): 14.7 nM
koff (soluble Her2 ectodomain [5]): 0.000741 s⁻¹
kon (soluble Her2 ectodomain [5]): 100000 M⁻¹ s⁻¹
B1: bH1 full-size antibody (Parent 2) (antibody, V domains shown)
VH: not shown
VL: DIQMTQSPSSLSASVGDRVTITCRASQDIPRSISGYVAWYQQKPGKAPKLLIYWGSYLYSGVPSRFSGSGSGTDFTLTISSLQPEDFATYYCQQHYTTPPTFGQGTKVEIK
notes: heavy chain of bH1 (Parent 2) as full-size human IgG; light chain of bH1 (Parent 2), a Herceptin variant with a 4-residue insertion in CDR-L1 and a few point mutations; FSA; IgG1 is surmised (Synagis is called the IgG1 isotype control); also called 2–13; source: CHO-3E7, co-transfected, purified (MabSelect Sure); copies: 2 + 2
IC50 of cytotoxicity, indirect ADC screen (DM1-conjugated secondary antibody), JIMT1 cells [3]: 7.4 nM
IC50 of cytotoxicity, indirect ADC screen (DM1-conjugated secondary antibody), MCF7 cells [3]: 8.2 nM
IC50 of cytotoxicity, indirect ADC screen (DM1-conjugated secondary antibody), SKOV3 cells [3]: 0.021 nM
IC50 of cytotoxicity, indirect ADC screen (MMAE-conjugated secondary antibody), JIMT1 cells [3]: 10.3 nM
IC50 of cytotoxicity, indirect ADC screen (MMAE-conjugated secondary antibody), MCF7 cells [3]: 35.6 nM
IC50 of cytotoxicity, indirect ADC screen (MMAE-conjugated secondary antibody), SKOV3 cells [3]: 0.078 nM
IC50 of cytotoxicity, antibody directly conjugated to DM1, SKOV3 cells [6]: 0.075 nM
IC50 of cytotoxicity, antibody directly conjugated to PNU, JIMT1 cells [6]: 0.5 nM
IC50 of cytotoxicity, antibody directly conjugated to PNU, MCF7 cells [6]: 2.02 nM
IC50 of cytotoxicity, antibody directly conjugated to PNU, SKOV3 cells [6]: 0.077 nM
